Results as given in patent US20070293656A1, “COLLAGEN BINDING PEPTIDES” (Epix Pharmaceuticals, Inc., priority 2005, published 2007).
Bridge positions count the residues as written; N and C are the ends. Square brackets hold non-standard residues; d marks the D form. Primed or numbered codes have the meaning given here. Ends that are not written are not given here. Gd^T″ = GdDTPA-thiourea

molecular target: human collagen type I (acid soluble, extracted from placenta, Sigma C7774) (human) (UniProt P02452); assay: dried collagen assay
Sequence (P02452 162-1218 limits assumed, chain 1 of 2): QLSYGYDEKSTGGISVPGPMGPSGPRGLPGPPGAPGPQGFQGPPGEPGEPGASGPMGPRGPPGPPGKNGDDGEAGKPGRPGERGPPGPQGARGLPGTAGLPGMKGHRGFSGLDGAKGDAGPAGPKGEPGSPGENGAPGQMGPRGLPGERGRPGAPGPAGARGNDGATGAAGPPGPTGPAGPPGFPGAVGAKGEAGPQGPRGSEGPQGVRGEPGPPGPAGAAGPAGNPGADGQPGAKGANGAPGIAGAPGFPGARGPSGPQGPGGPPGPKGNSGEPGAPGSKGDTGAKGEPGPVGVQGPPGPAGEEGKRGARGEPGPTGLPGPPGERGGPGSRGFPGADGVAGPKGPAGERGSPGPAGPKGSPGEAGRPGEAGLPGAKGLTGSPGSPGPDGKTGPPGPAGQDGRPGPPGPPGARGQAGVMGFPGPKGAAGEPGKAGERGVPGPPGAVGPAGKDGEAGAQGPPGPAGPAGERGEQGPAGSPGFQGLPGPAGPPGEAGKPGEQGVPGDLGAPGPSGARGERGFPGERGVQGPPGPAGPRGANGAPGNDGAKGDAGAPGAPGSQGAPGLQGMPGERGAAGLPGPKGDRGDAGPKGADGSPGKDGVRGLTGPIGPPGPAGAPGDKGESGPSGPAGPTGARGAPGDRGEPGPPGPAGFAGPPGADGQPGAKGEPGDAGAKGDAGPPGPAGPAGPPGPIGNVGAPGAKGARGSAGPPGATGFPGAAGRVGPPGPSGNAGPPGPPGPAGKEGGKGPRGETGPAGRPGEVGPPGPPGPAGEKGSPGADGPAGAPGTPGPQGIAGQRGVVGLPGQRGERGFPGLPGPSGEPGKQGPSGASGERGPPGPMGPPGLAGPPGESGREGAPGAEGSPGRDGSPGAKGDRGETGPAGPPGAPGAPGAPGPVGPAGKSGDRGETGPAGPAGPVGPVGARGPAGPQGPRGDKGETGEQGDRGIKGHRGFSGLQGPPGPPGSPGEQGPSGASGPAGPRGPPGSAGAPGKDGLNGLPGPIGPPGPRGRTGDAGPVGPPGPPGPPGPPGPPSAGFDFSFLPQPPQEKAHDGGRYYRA
Sequence (P08123 80-1119 limits assumed, chain 2 of 2, further chain): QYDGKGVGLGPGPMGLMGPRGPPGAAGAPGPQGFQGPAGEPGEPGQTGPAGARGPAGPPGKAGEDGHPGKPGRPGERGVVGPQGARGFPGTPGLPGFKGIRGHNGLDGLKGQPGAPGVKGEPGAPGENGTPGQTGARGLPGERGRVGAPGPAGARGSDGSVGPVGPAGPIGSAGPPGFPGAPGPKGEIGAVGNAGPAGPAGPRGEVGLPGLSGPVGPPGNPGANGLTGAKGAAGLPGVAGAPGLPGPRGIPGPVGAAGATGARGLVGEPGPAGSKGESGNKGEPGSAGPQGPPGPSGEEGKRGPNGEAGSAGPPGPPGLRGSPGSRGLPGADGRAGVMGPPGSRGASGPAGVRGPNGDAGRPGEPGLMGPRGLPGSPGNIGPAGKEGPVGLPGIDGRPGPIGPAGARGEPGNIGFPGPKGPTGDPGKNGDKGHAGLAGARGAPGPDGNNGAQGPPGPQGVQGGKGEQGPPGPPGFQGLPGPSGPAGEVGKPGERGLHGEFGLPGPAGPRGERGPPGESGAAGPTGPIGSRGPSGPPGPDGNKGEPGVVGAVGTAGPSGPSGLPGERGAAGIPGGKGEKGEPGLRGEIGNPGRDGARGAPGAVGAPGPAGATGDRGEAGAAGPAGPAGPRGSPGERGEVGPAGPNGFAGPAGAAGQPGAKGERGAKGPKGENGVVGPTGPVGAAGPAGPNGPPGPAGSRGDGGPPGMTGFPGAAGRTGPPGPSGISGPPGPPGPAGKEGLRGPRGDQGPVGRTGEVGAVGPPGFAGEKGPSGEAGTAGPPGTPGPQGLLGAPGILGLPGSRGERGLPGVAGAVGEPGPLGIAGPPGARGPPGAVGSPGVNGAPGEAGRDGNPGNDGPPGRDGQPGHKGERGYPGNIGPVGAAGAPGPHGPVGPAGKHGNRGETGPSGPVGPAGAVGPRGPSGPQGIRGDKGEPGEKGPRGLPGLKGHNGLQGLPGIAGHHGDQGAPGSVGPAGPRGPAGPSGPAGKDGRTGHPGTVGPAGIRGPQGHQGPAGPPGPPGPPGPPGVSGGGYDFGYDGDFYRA

| Binder | % bound [%] |
| --- | --- |
| FSECVWVNAYQCEYF (disulfide 4-12 (inferred)) [SEQ ID NO: 113] | 3 |
| PWWCHEMPSMCFGF (disulfide 4-11 (inferred)) [SEQ ID NO: 3] | 2 |
| GWQCFGASDWHCTWV (disulfide 4-12 (inferred)) [SEQ ID NO: 8] | 9 |
| PWTCSGDEYAWHCNYE (Gd^G-PWTCSGDEYAWHCNYe) [Comp ID 824] | 12 |
| GQWHCTTDFPHXYCLYG (not fully specified; Gd^T-GQWHCTTDFPH-Dpr-YCLYG) [Comp ID 886] | 8 |
| WQVCADSPGVITYCYTY (disulfide 4-14 (inferred)) [SEQ ID NO: 98] | 5 |
| GQWHCTTDYPHHYCLYG (not fully specified; Gd^T-GQWHCTTD-Y(3-Cl)-PHHYCLYG) [Comp ID 895] | 7 |
| GQWHCTTRFPHHYCAYG (not fully specified; Gd^T-GQWHCTTRFPHHYCAYG) [Comp ID 855] | 27 |
| {Gd^T″}-DWTCS[dY]DEYTWHCNYE (disulfide 4-13 (inferred)) [Comp ID 829] | 20 |
| {Gd^T″}-GQWHCTTRFPHHYCLYG[dK](Gd^T″) (disulfide 5-14 (inferred)) [Comp ID 808] | 25 |

molecular target: T1, human collagen type I (acid soluble, extracted from placenta, Sigma C7774) (human, UniProt P02452 162-1218; P08123 80-1119); assay: dried collagen assay
T1 construct: gelled and dried as a fibril film in the assay; also called dried human collagen; h-Collagen
T1 sequence (P02452 162-1218 limits assumed, chain 1 of 2): as the sequence (P02452 162-1218 limits assumed, chain 1 of 2) above
T1 sequence (P08123 80-1119 limits assumed, chain 2 of 2): as the sequence (P08123 80-1119 limits assumed, chain 2 of 2, further chain) above
Description: An additional 90 μL is reserved in a HPLC glass vial as a measure of the total concentration.

| Binder | % bound [%] |
| --- | --- |
| EWHCVLNDFRWTCGGD (disulfide 4-13 (inferred)) [SEQ ID NO: 60] | 10 |
| MWNCTMTKSGWRCFEK (disulfide 4-13 (inferred)) [SEQ ID NO: 54] | 12 |
| TWICSHNDKGWTCGDQ (disulfide 4-13 (inferred)) [SEQ ID NO: 64] | 8 |
| SWNCHWRNQGWLCSGG (disulfide 4-13 (inferred)) [SEQ ID NO: 55] | 12 |
| RWTCDLQRGDWQCSTI (disulfide 4-13 (inferred)) [SEQ ID NO: 57] | 11 |
| HWQCRLTDYGWNCDER (disulfide 4-13 (inferred)) [SEQ ID NO: 59] | 10 |
| HWSCDLAMDNEWFCSTK (disulfide 4-14 (inferred)) [SEQ ID NO: 84] | 3 |
| GWVCMMRETDWNCSI (disulfide 4-13 (inferred)) [SEQ ID NO: 58] | 10 |
| QWFCEMDEYGKWNCGMM (disulfide 4-14 (inferred)) [SEQ ID NO: 81] | 3 |
| SWYCDWDDRKGWMCGSD (disulfide 4-14 (inferred)) [SEQ ID NO: 86] | 2 |
| FWRCALLDGHWQCTDH (disulfide 4-13 (inferred)) [SEQ ID NO: 70] | 3 |
| AWFCSQKNRLWSCGET (disulfide 4-13 (inferred)) [SEQ ID NO: 49] | 19 |
| GWACNTTSKGDWECTNL (disulfide 4-14 (inferred)) [SEQ ID NO: 83] | 3 |
| HWQCGEKMSFWSCELV (disulfide 4-13 (inferred)) [SEQ ID NO: 69] | 3 |
| SWHCALMGSRWVCGQN (disulfide 4-13 (inferred)) [SEQ ID NO: 71] | 3 |
| GWFCKLVDGNWECSTK (disulfide 4-13 (inferred)) [SEQ ID NO: 53] | 12 |
| HWSCYLGDNGWNCHDR (disulfide 4-13 (inferred)) [SEQ ID NO: 62] | 9 |
| HWTCDQAKGGAWSCSST (disulfide 4-14 (inferred)) [SEQ ID NO: 87] | 1 |
| GWTCSQPGANVWNCTMQ (disulfide 4-14 (inferred)) [SEQ ID NO: 85] | 3 |
| FGACDIFPTFHTCPGV (disulfide 4-13 (inferred)) [SEQ ID NO: 76] | 1 |
| SWHCALVENSWQCSEA (disulfide 4-13 (inferred)) [SEQ ID NO: 73] | 1 |
| NWYCSQALDNWSCKLR (disulfide 4-13 (inferred)) [SEQ ID NO: 63] | 8 |
| KWSCYMVDHQWYCREF (disulfide 4-13 (inferred)) [SEQ ID NO: 61] | 9 |
| LWTCSMDRNYDWVCGEK (disulfide 4-14 (inferred)) [SEQ ID NO: 82] | 3 |
| RWSCWLDENGWKCDGT (disulfide 4-13 (inferred)) [SEQ ID NO: 52] | 15 |
| KWFCELMQDQWQCGSK (disulfide 4-13 (inferred)) [SEQ ID NO: 50] | 18 |
| KWFCELMHDQWQCGSK (disulfide 4-13 (inferred)) [SEQ ID NO: 51] | 18 |
| EWHCVFIQGDWLCNSG (disulfide 4-13 (inferred)) [SEQ ID NO: 72] | 1 |
| SWNCHMIRNEWRCTGH (disulfide 4-13 (inferred)) [SEQ ID NO: 56] | 11 |
